Article PMC4660060, “The molecular architecture of the Dam1 kinetochore complex is defined by cross-linking based structural modelling” (Nature Communications, 2015)

Molecular target: the molecule itself
Assay: TIRF microscopy, tracer residence time; GFP-tagged and unlabelled versions of the same mutant Dam1 complex mixed 1:100 to 2 nM in all (20 pM tracer), on immobilised MTs; BRB80, 0.8 mg/ml kappa-casein, 50 mM KCl, oxygen scavengers; concentrations that support oligomeric rings

Protein | fold increase of the average residence time on MTs against single molecules | binding result
Dam1-GFP NP complex, mock-treated (Dam1p S257A, S265A, S292A, Ask1p S200A, Spc34p T199A) (complex, yeast, GFP-tagged complex, detected by its GFP; In the tracer assay 20 pM of this complex met 2 nM of the same mutant complex without GFP; also called Dam1 NP mock; Dam1 NP; source: recombinant Dam1 complex (E. coli BL21 Rosetta, purified); mock-treated with GST-Ipl1 and GST-Sli15 (554-698), distilled water in place of ATP; copies: + + + + + + + + +) chain 1: MDSASKEETLEKLDQEITVNLQKIDSNLSFCFHKITQDIIPHVATYSEICERIMDSTEWLGTMFQETGLVNLQANAAAPVGNAPVKSLVSNNVGIFPTSAEEASRQSQTDNGPNEADSAVHVNRDVHSMFNNDSIDDFHTANITSTGQILKLPDSSDEDTGSEAVPSREQTDLTGEGHGGADDEQDESTIQRQSRKRKIALLLQQQYGSSSSMVPSPIVPNKMRKQLAHEEHINNDGDNDDENSNNIESSPLKQGHHHPKGQADDNNEGPDEEESTKEVPKPGTIIHFSTNR chain 2: MMASTSNDEEKLISTTDKYFIEQRNIVLQEINETMNSILNGLNGLNISLESSIAVGREFQSVSDLWKTLYDGLESLSDEAPIDEQPTLSQSKTK chain 3: MDSIDEQIAIKRKELQSLQKITSLTDGLKIQLTELNEQIKEMGMNADSVAQLMNNWDSIINNISQASLGLLQYAEGDYEIGPWKDSKKKESEQSNETGLEAQENDKNDEDNDEDEDLVPLPETMVRIRVDGNE chain 4: MEHNLSPLQQEVLDKYKQLSLDLKALDETIKELNYSQHRQQHSQQETVSPDEILQEMRDIEVKIGLVGTLLKGSVYSLILQRKQEQESLGSNSK chain 5: MENPHEQVQANILSRIIGNVKRLNESVAILNQELVTINNRNKNLEIMGAICDNYHSSVQFNLEATNNKKPPL chain 6: MSEDKAKLGTTRSATEYRLSIGSAPTSRRSSMGESSSLMKFADQEGLTSSVGEYNENTIQQLLLPKIRELSDSIITLDSNFTRLNFIHESLADLNESLGSLLYGIMSNSWCVEFSQAPHDIQDDLIAIKQLKSLEDEKNNLVMELSNMERGIKRKKDEQGENDLAKASQNKQFNQPLFPSSQVRKYRSYDNRDKRKPSKIGNNLQVENEEDYEDDTSSEASFVLNPTNIGMSKSSQGHVTKTTRLNNNTNSKLRRKAILHTIRNAIASGADLPIENDNVVNLGDLHPNNRIALGSGAARVVNGPVTKNRNSMFSGRAERKPTESRHSVAKKTEKKINTRPPFR chain 7: MSEQSQLDDSTIDKLIPQIFNEMRSNLNNTTNKFPKSTGGGASDNISANSNSIRSFNSITTQSLLKESESLDKITAMIKNVTAALKNNLPVYVNQVHEVCKSTNSILDSWINIHSQAGYIHKLMSDQTYLKLINDRLHNENVNTNDEDGSTLHNVIALKKKEILDLRQKLENRKGEKDAAPAKPPNQGLNPRYGVQSGRRPVPSAGISNNGRVRKTHVPASKRPSGIPRVTNRWTKPTASSSRKMFR chain 8: MNANKQRQYNQLAHELRELQTNLQETTKQLDIMSKQCNENLVGQLGKVHGSWLIGSYIYYMEQMLGKTQ chain 9: MTDALEQSVLALEGTVSVLKDSVESLKCANEPSTNLASTMLQTKRVFRLVPEYDVERSKLDLIEEVEPLVRTLGDKLRKSMGRMQRELDTLQQTYELNDLRLKKNISMDDDDALNSPDMGQEYEGRDADDVVMMASSTNEELEELKKLKEKKKQLENKLEILKQK chain 10: MGESLDRCIDDINRAVDSMSTLYFKPPGIFHNAILQGASNKASIRKDITRLIKDCNHDEAYLLFKVNPEKQSVSRRDGKEGVFDYVIKRDTDMKRNRRLGRPGEKPIIHVPKEVYLNKDRLDLNNKRRRTATTSGGGLNGFIFDTDLIGSSVISNSSSGTFKALSAVFKDDPQIQRLLYALENGSVLMEEESNNQRRKAIFVEDFPTDLILKVMAEVTDLWPLTEFKQDYDQLYHNYEQLSSKLRFIKKEVLLQDDRLKTMSQYHPSSSHDVAKIIRKEKDEIRRLEMEIANLQE | > 5 fold | –
Dam1-GFP CP complex, mock-treated (Dam1p S20A, Ask1p S200A, Spc34p T199A) (complex, yeast, GFP-tagged complex, detected by its GFP; In the tracer assay 20 pM of this complex met 2 nM of the same mutant complex without GFP; also called Dam1 CP mock; Dam1 CP; source: recombinant Dam1 complex (E. coli BL21 Rosetta, purified); mock-treated with GST-Ipl1 and GST-Sli15 (554-698), distilled water in place of ATP; copies: + + + + + + + + +) chain 1: MDSASKEETLEKLDQEITVNLQKIDSNLSFCFHKITQDIIPHVATYSEICERIMDSTEWLGTMFQETGLVNLQANAAAPVGNAPVKSLVSNNVGIFPTSAEEASRQSQTDNGPNEADSAVHVNRDVHSMFNNDSIDDFHTANITSTGQILKLPDSSDEDTGSEAVPSREQTDLTGEGHGGADDEQDESTIQRQSRKRKIALLLQQQYGSSSSMVPSPIVPNKMRKQLAHEEHINNDGDNDDENSNNIESSPLKQGHHHPKGQADDNNEGPDEEESTKEVPKPGTIIHFSTNR chain 2: MMASTSNDEEKLISTTDKYFIEQRNIVLQEINETMNSILNGLNGLNISLESSIAVGREFQSVSDLWKTLYDGLESLSDEAPIDEQPTLSQSKTK chain 3: MDSIDEQIAIKRKELQSLQKITSLTDGLKIQLTELNEQIKEMGMNADSVAQLMNNWDSIINNISQASLGLLQYAEGDYEIGPWKDSKKKESEQSNETGLEAQENDKNDEDNDEDEDLVPLPETMVRIRVDGNE chain 4: MEHNLSPLQQEVLDKYKQLSLDLKALDETIKELNYSQHRQQHSQQETVSPDEILQEMRDIEVKIGLVGTLLKGSVYSLILQRKQEQESLGSNSK chain 5: MENPHEQVQANILSRIIGNVKRLNESVAILNQELVTINNRNKNLEIMGAICDNYHSSVQFNLEATNNKKPPL chain 6: MSEDKAKLGTTRSATEYRLAIGSAPTSRRSSMGESSSLMKFADQEGLTSSVGEYNENTIQQLLLPKIRELSDSIITLDSNFTRLNFIHESLADLNESLGSLLYGIMSNSWCVEFSQAPHDIQDDLIAIKQLKSLEDEKNNLVMELSNMERGIKRKKDEQGENDLAKASQNKQFNQPLFPSSQVRKYRSYDNRDKRKPSKIGNNLQVENEEDYEDDTSSEASFVLNPTNIGMSKSSQGHVTKTTRLNNNTNSKLRRKSILHTIRNSIASGADLPIENDNVVNLGDLHPNNRISLGSGAARVVNGPVTKNRNSMFSGRAERKPTESRHSVAKKTEKKINTRPPFR chain 7: MSEQSQLDDSTIDKLIPQIFNEMRSNLNNTTNKFPKSTGGGASDNISANSNSIRSFNSITTQSLLKESESLDKITAMIKNVTAALKNNLPVYVNQVHEVCKSTNSILDSWINIHSQAGYIHKLMSDQTYLKLINDRLHNENVNTNDEDGSTLHNVIALKKKEILDLRQKLENRKGEKDAAPAKPPNQGLNPRYGVQSGRRPVPSAGISNNGRVRKTHVPASKRPSGIPRVTNRWTKPTASSSRKMFR chain 8: MNANKQRQYNQLAHELRELQTNLQETTKQLDIMSKQCNENLVGQLGKVHGSWLIGSYIYYMEQMLGKTQ chain 9: MTDALEQSVLALEGTVSVLKDSVESLKCANEPSTNLASTMLQTKRVFRLVPEYDVERSKLDLIEEVEPLVRTLGDKLRKSMGRMQRELDTLQQTYELNDLRLKKNISMDDDDALNSPDMGQEYEGRDADDVVMMASSTNEELEELKKLKEKKKQLENKLEILKQK chain 10: MGESLDRCIDDINRAVDSMSTLYFKPPGIFHNAILQGASNKASIRKDITRLIKDCNHDEAYLLFKVNPEKQSVSRRDGKEGVFDYVIKRDTDMKRNRRLGRPGEKPIIHVPKEVYLNKDRLDLNNKRRRTATTSGGGLNGFIFDTDLIGSSVISNSSSGTFKALSAVFKDDPQIQRLLYALENGSVLMEEESNNQRRKAIFVEDFPTDLILKVMAEVTDLWPLTEFKQDYDQLYHNYEQLSSKLRFIKKEVLLQDDRLKTMSQYHPSSSHDVAKIIRKEKDEIRRLEMEIANLQE | > 5 fold | –
Dam1-GFP CP complex, phosphorylated by Ipl1 (Dam1p S20A, Ask1p S200A, Spc34p T199A; Dam1p C-terminal sites phosphorylated) (complex, yeast, phosphoserine at S257, S265 and S292 (by Ipl1 kinase, nearly stoichiometric), GFP-tagged complex, detected by its GFP; In the tracer assay 20 pM of this complex met 2 nM of the same phosphorylated mutant complex without GFP; also called Dam1 CP phos; Dam1 CP; source: recombinant Dam1 complex (E. coli BL21 Rosetta, purified); phosphorylated with GST-Ipl1, GST-Sli15 (554-698) and 10 mM ATP, 90 min, 30 °C; copies: + + + + + + + + +) chain 1: MDSASKEETLEKLDQEITVNLQKIDSNLSFCFHKITQDIIPHVATYSEICERIMDSTEWLGTMFQETGLVNLQANAAAPVGNAPVKSLVSNNVGIFPTSAEEASRQSQTDNGPNEADSAVHVNRDVHSMFNNDSIDDFHTANITSTGQILKLPDSSDEDTGSEAVPSREQTDLTGEGHGGADDEQDESTIQRQSRKRKIALLLQQQYGSSSSMVPSPIVPNKMRKQLAHEEHINNDGDNDDENSNNIESSPLKQGHHHPKGQADDNNEGPDEEESTKEVPKPGTIIHFSTNR chain 2: MMASTSNDEEKLISTTDKYFIEQRNIVLQEINETMNSILNGLNGLNISLESSIAVGREFQSVSDLWKTLYDGLESLSDEAPIDEQPTLSQSKTK chain 3: MDSIDEQIAIKRKELQSLQKITSLTDGLKIQLTELNEQIKEMGMNADSVAQLMNNWDSIINNISQASLGLLQYAEGDYEIGPWKDSKKKESEQSNETGLEAQENDKNDEDNDEDEDLVPLPETMVRIRVDGNE chain 4: MEHNLSPLQQEVLDKYKQLSLDLKALDETIKELNYSQHRQQHSQQETVSPDEILQEMRDIEVKIGLVGTLLKGSVYSLILQRKQEQESLGSNSK chain 5: MENPHEQVQANILSRIIGNVKRLNESVAILNQELVTINNRNKNLEIMGAICDNYHSSVQFNLEATNNKKPPL chain 6: MSEDKAKLGTTRSATEYRLAIGSAPTSRRSSMGESSSLMKFADQEGLTSSVGEYNENTIQQLLLPKIRELSDSIITLDSNFTRLNFIHESLADLNESLGSLLYGIMSNSWCVEFSQAPHDIQDDLIAIKQLKSLEDEKNNLVMELSNMERGIKRKKDEQGENDLAKASQNKQFNQPLFPSSQVRKYRSYDNRDKRKPSKIGNNLQVENEEDYEDDTSSEASFVLNPTNIGMSKSSQGHVTKTTRLNNNTNSKLRRKSILHTIRNSIASGADLPIENDNVVNLGDLHPNNRISLGSGAARVVNGPVTKNRNSMFSGRAERKPTESRHSVAKKTEKKINTRPPFR chain 7: MSEQSQLDDSTIDKLIPQIFNEMRSNLNNTTNKFPKSTGGGASDNISANSNSIRSFNSITTQSLLKESESLDKITAMIKNVTAALKNNLPVYVNQVHEVCKSTNSILDSWINIHSQAGYIHKLMSDQTYLKLINDRLHNENVNTNDEDGSTLHNVIALKKKEILDLRQKLENRKGEKDAAPAKPPNQGLNPRYGVQSGRRPVPSAGISNNGRVRKTHVPASKRPSGIPRVTNRWTKPTASSSRKMFR chain 8: MNANKQRQYNQLAHELRELQTNLQETTKQLDIMSKQCNENLVGQLGKVHGSWLIGSYIYYMEQMLGKTQ chain 9: MTDALEQSVLALEGTVSVLKDSVESLKCANEPSTNLASTMLQTKRVFRLVPEYDVERSKLDLIEEVEPLVRTLGDKLRKSMGRMQRELDTLQQTYELNDLRLKKNISMDDDDALNSPDMGQEYEGRDADDVVMMASSTNEELEELKKLKEKKKQLENKLEILKQK chain 10: MGESLDRCIDDINRAVDSMSTLYFKPPGIFHNAILQGASNKASIRKDITRLIKDCNHDEAYLLFKVNPEKQSVSRRDGKEGVFDYVIKRDTDMKRNRRLGRPGEKPIIHVPKEVYLNKDRLDLNNKRRRTATTSGGGLNGFIFDTDLIGSSVISNSSSGTFKALSAVFKDDPQIQRLLYALENGSVLMEEESNNQRRKAIFVEDFPTDLILKVMAEVTDLWPLTEFKQDYDQLYHNYEQLSSKLRFIKKEVLLQDDRLKTMSQYHPSSSHDVAKIIRKEKDEIRRLEMEIANLQE | – | binds
